Consider one protein from article PMC3914025 (Nature, 2013).

The series concerns the molecule itself. The experiment in a line: crystal structure.

B1: NapA from Thermus thermophilus, triple cysteine mutant (Met20, Val166, Val326 to cysteine) (natural protein)
chain: MHGAEHLLEIFYLLLAAQVCAFIFKRLNQPVVIGEVLAGVLVGPALLGLVHEGEILEFLAELGAVFLLFMVGLETRLKDILAVGKEAFLVAVLGVALPFLGGYLYGLEIGFETLPALFLGTALVATSVGITARVLQELGVLSRPYSRIILGAAVIDDVLGLIVLACVNGVAETGQVEVGAITRLIVLSVVFVGLAVFLSTLIARLPLERLPVGSPLGFALALGVGMAALAASIGLAPIVGAFLGGMLLSEVREKYRLEEPIFAIESFLAPIFFAMVGVRLELSALASPVVLVAGTVVTVIAILGKVLGGFLGALTQGVRSALTVGCGMAPRGEVGLIVAALGLKAGAVNEEEYAIVLFMVVFTTLFAPFALKPLIAWTERERAAKEGSENLYFQ
Take B1: the binding result is “binds”.
